Assays:
skin of volunteers = experiment: Psychophysics: itch sensation after insertion of native or reconstituted cowhage spicules into skin; assay type: in vivo; details: human volunteers; autoclaved spicules soaked in the substance and dried
Procedure: Reconstitution of spicules—Native spicules were inactivated by autoclaving for 1 hour and reconstituted with native and recombinant mucunains in the presence or absence of cysteine protease inhibitor, E64. Typically, 50 mg of inactivated spicules were mixed with 0.4 ml of 28 μM mucunain in a 2 ml microfuge tube, vortexed, and dried in a Speed-vac for 2 hours at room temperature. These spicules were then considered as ‘reconstituted’ with the protease alone. Spicules prepared in a similar manner but with E64 added at twice the concentration of mucunain, are considered reconstituted with the protease and the inhibitor.
Psychophysics—These protocols were approved by the Yale University Human Investigation Committee. A row of 10 cowhage spicules were lightly pasted to the flattened end of a Weck-Cel surgical strip, spaced at 1 mm, and applied parallel to the surface of the skin at the mid-volar forearm. […] Every 30 sec, subjects rated the magnitude of each of three qualities of sensation: Itch, pricking/stinging, and burning using the Generalized Labeled Magnitude Scale (Bartoshuk et al. 2004) that employs appropriately placed intensity descriptors of “none”, “barely detectable”, “weak”, “moderate”, “strong”, “very strong” and, at the top of the scale, “the strongest sensation imaginable.” Voltages derived from each subject's movements of a computer mouse that controlled a cursor on a visual representation of this scale were converted to numbers between 0 and 100 and plotted for each quality at successive intervals of 30 s up to 20 min after the insertion of cowhage. […]
The sensory effects of mucunain was further analyzed. […] 50 mg of the inactivated, dried spicules were then soaked in 0.05 ml of the filtered extract containing 0.07 mg of cysteine protease (as determined by non-interfering protein assay) with or without 3.5 micrograms of E-64. […]

casein = details: 12.5% native casein-zymogram gel, 0.1 μg of each mucunain
Procedure: Zymogram—The zymogram of native and recombinant mucunain was carried out using a 12.5% native casein-zymogram gel as recommended by the supplier (Biorad). The zymogram gel was run with 0.1 μg of each of the mucunains, renatured and developed for protease activity overnight.

PAR4 = experiment: PAR activation by cytoplasmic calcium release, ratiometric Fura-2 imaging, PAR4 transfected HeLa cells; assay type: cell-based, human; details: Fura-2 340:380 ratiometric imaging
Procedure: PAR activation observed by cytoplasmic calcium release—The four human PAR cDNAs were obtained from commercial sources and cloned into the pcDNA3.1 (−) vector (Invitrogen). HeLa cells were transfected with 10 μg of vector cDNA using Lipofectamine 2000 (Invitrogen) and cultured for two days in 96-well glass bottom plates at 30,000 cells/well. Cells were loaded with Fura-2 as follows. The medium was aspirated and replaced with 100 μl of complete DMEM containing 2 μM Fura-2 (Invitrogen) and kept at room temperature in the dark for 1 hr. The medium was again aspirated and each well received 90 μl of HEPES buffered saline (20 mM HEPES, 115 mM NaCl, 5.4 mM KCl, 2 mM CaCl2, 0.8 mM MgCl2, 13.8 mM glucose, pH 7.4). Plates were observed using a Zeiss Axiovert 200M microscope equipped with a filter wheel for monitoring excitation at 340 and 380 nm. Axiovision software, version 4.6 was used to analyze ratiometric calcium imaging of the cells. Ten μl of protease was applied approximately 20 seconds after the start of excitation. Images were taken every 5 seconds, beginning at time zero, for 3 minutes. The software was used to analyze the 37 images taken during each 3-minute period.

[1] = native mucunain 0.9 μM, recombinant mucunain 2.7 μM; room temperature 1 hr; absorbance at 405 nm
Procedure: Chromogenic substrate assay—Native and recombinant mucunain protease activity were measured in a buffer containing 50 mM sodium acetate (pH 5.5), 2.5 mM EDTA, 2.5 mM DTT, and 250 μg/ml Z-Phe-Arg-pNA as the chromogenic substrate. After adding protease, the reaction was incubated at room temperature for 1 hr. Generation of the yellow product, p-nitroaniline, was assayed by measuring the absorbance at 405 nm. Papain served as a control cysteine protease. E64, an irreversible inhibitor of cysteine proteases, was used at a concentration of 10 M. Experiments were performed in triplicate and the error bars represent standard deviation.

B1: recombinant mucunain: M. pruriens cysteine protease expressed in E. coli, refolded and activated (protein)
chain: DNLPESVDWRNESAVLPVKDQGNCGSCWAFSTIGAVEGINKIVTGDLISLSEQELVDCDTSYNQGCNGGLMDYAYEFIINNGGIDSEEDYPYRAVDGTCDQYRKNAKVVTIDSYEDVPANDELALKKAVANQPVSVAIEGGGREFQLYVSGVFTGRCGTALDHGVVAVGYGSVKGHDYWIVRNSWGASWGEEGYVRLERNLAKSRSGKCGIAIEPSYPIKNGANPPNPGPSPPSPVKPPNVCDNSYSCSDSATCCCIFEFQKYCMVWGCCPLEAATCCDDHYSCCPHEYPICNVRAGTCLKGKNNPFGVKALRRTPAKPHWAFGGKNKVNSA
itch evoked by substance loaded into inactivated spicules (skin of volunteers): did elicit itch
protease activity in zymogram (casein): Protease activity was found
calcium influx in PAR4 transfected HeLa cells (PAR4): induced calcium influx

B2: mucunain: cysteine protease, itch-inducing component of spicules from M. pruriens (cowhage) (protein)
chain: DNLPESVDWRNESAVLPVKDQGNCGSCWAFSTIGAVEGINKIVTGDLISLSEQELVDCDTSYNQGCNGGLMDYAYEFIINNGGIDSEEDYPYRAVDGTCDQYRKNAKVVTIDSYEDVPANDELALKKAVANQPVSVAIEGGGREFQLYVSGVFTGRCGTALDHGVVAVGYGSVKGHDYWIVRNSWGASWGEEGYVRLERNLAKSRSGKCGIAIEPSYPIKNGANPPNPGPSPPSPVKPPNVCDNSYSCSDSATCCCIFEFQKYCMVWGCCPLEAATCCDDHYSCCPHEYPICNVRAGTCLKGKNNPFGVKALRRTPAKPHWAFGGKNKVNSA
itch evoked by substance loaded into inactivated spicules (skin of volunteers): evoked itch and nociceptive sensations
cleavage of chromogenic substrate Z-FR-pNA [1]: cleaves

B3: papain: crystallized papain from Sigma, control cysteine protease (protein)
chain: IPEYVDWRQKGAVTPVKNQGSCGSCWAFSAVVTIEGIIKIRTGNLNEYSEQELLDCDRRSYGCNGGYPWSALQLVAQYGIHYRNTYPYEGVQRYCRSREKGPYAAKTDGVRQVQPYNEGALLYSIANQPVSVVLEAAGKDFQLYRGGIFVGPCGNKVDHAVAAVGYGPNYILIKNSWGTGWGENGYIRIKRGTGNSYGVCGLYTSSFYPVKN
itch evoked by substance loaded into inactivated spicules (skin of volunteers): produced itch
calcium influx in PAR4 transfected HeLa cells (PAR4): induced calcium influx
